Columns and labels:
[1] = molecular target: SARS-CoV-2 S1 domain C-His tag protein, from HEK293 cells (SARS-CoV-2, Wuhan-Hu-1 (strain not …, UniProt P0DTC2)); experiment: SPR
[2] = molecular target: SARS-CoV-2 Spike WT (Wuhan-Hu-1 reference strain) (SARS-CoV-2, Wuhan-Hu-1, UniProt P0DTC2); experiment: flow cytometry on cells
[3] = molecular target: SARS-CoV-2 Spike on CEM.NKr-Spike cells (SARS-CoV-2, Wuhan-Hu-1 (assumed for the …, UniProt P0DTC2)); experiment: flow cytometry on cells

Binder | binding result [1] | binding result [2] | binding result [3]
CV3-13 (hIgG1) (antibody, V domains shown) VH: QVQLQQSGPGLVKPSQTLSLTCTVAGGSISSGTYYWSWIRQPAGKGLEWIGRIYTSGSANYNPSLKSRVTISVDTSKNQFSLRLSSVTAEDTAVYYCAREYSSSYYYFYYMDVWGKGTTVTVSS VL: AIRMTQSPSSLSASVGDRVTITCQASQDISNYLNWYQQKPGKAPKLLIYVASNLETGVPSRFSGSGFGTDFTFTISSLQPEDIATYYCQQFDNLPYTFGQGTKLEIK | binds | binds | binds
CV3-13 LALA (hIgG1) (antibody, V domains shown) VH: QVQLQQSGPGLVKPSQTLSLTCTVAGGSISSGTYYWSWIRQPAGKGLEWIGRIYTSGSANYNPSLKSRVTISVDTSKNQFSLRLSSVTAEDTAVYYCAREYSSSYYYFYYMDVWGKGTTVTVSS VL: AIRMTQSPSSLSASVGDRVTITCQASQDISNYLNWYQQKPGKAPKLLIYVASNLETGVPSRFSGSGFGTDFTFTISSLQPEDIATYYCQQFDNLPYTFGQGTKLEIK | – | binds | binds
CV3-13 […] (hIgG1) (antibody, V domains shown) VH: QVQLQQSGPGLVKPSQTLSLTCTVAGGSISSGTYYWSWIRQPAGKGLEWIGRIYTSGSANYNPSLKSRVTISVDTSKNQFSLRLSSVTAEDTAVYYCAREYSSSYYYFYYMDVWGKGTTVTVSS VL: AIRMTQSPSSLSASVGDRVTITCQASQDISNYLNWYQQKPGKAPKLLIYVASNLETGVPSRFSGSGFGTDFTFTISSLQPEDIATYYCQQFDNLPYTFGQGTKLEIK | – | binds | binds

— paper PMC8786652 (Cell reports, 2022)
